The DeepSol protein solubility set

test: soluble on expression in E. coli; label from the status in PepcDB or PDB records

| Sequence | soluble on expression in E. coli |
| --- | --- |
| MTSITPVTLANCEDEPIHVPGAIQPHGALVTLRADGMVLAASENIQALLGFVASPGSYLTQEQVGPEVLRMLEEGLTGNGPWSNSVETRIGEHLFDVIGHSYKEVFYLEFEIRTADTLSITSFTLNAQRIIAQVQLHNDTASLLSNVTDELRRMTGYDRVMAYRFRHDDSGEVVAESRREDLESYLGQRYPASDIPAQARRLYIQNPIRLIADVAYTPMRVFPALNPETNESFDLSYSVLRSVSPIHCEYLTNMGVRASMSISIVVGGKLWGLFSCHHMSPKLIPYPVRMSFQIFSQVCSAIVERLEQGRIAELLRVSTERRLALARRARDADDLFGALAHPDDGIAALIPCDGALVMLGGRTLSIRGDFERQAGNVLQRLQRDPERDIYHTDNWPQPSEDSPDGGDCCGVLAIRFHRQESGWIFWFRHEEVHRIRWGGKPEKLLTIGPSGPRLTPRGSFEAWEEVVRGHSTPWSETDLAIAEKLRLDLMELCLNHALEHHHHHH | soluble |
| MTSKTSESGTGTQSTIVQLRNLPDLTEISHLEIDAPVVEILKKTVLFQLNSLNICISNFALDELVNLVTVQMDGMFRNLHNLTLLQRRSQASQADLKLLLREFNLDAPSLYQQFQASEFIKSKHSTEYEKLMSWSSLAALPHNEEDEEDELNNIEEQQNEINVLLPPSNPLEKQIPSWLPNFPPDHTYKFTPEFNHPITDLKTIKKEIVKESQESEKALLNLNKSLSHISSASNTPQPPGLDDEDAIEQQLEIWGNALEERKPTITEKSFNENNIEQYAKYRVELARERVTKFEVNQLKRTKNPFLKISETLYLPESPHQSHKTIQKTIELQFRKSMTLFMHNLPKVQKLKKEKIRMAKEERAKSLKRRQEELISQRTKREQDEGHDLELLLNNEHARDAADDTTTPNALNNSTIVINTNAEDEDDDINLFGILGSSEDENEMSSMPAENLVAESEPPTMTAQDTTNTTPVAHNTTNIDATTSHSPHSTPNENAPTSPPADIATDHDITM | soluble |
| MTSNKNVKTLDEAIRELTRAKAILDSARPTAVNLVWATSRMLTLAKNAVENGNAKTINELIDLMKVEAKRIFDEEYDAEIQMGLYGLEKLNDSDT | not soluble |
| MTSSIKSDAPQFLLDLDNCSSLPPTPPKTASPGNSKMKGFNISDLCLDLDSSTSSSCSVSPASSFHTRSESVGQQQSGRNSPVSSSTESPTKRPKYSYNALIAMAIQSSPFKSLRVSEIYKYISSNFSYYKNQKPLQWQNSVRHNLSLHKEFRKVRTLDGKGSYWAMTADLGTDVYISNNCGKLRRQKSKVAKFPPMQQHFPIPQLPTQNIHQLCMQNPQILATLLQNMYLQNMQNLQNIPMVPGFPIIPVPINPTSFHFPKSS | not soluble |
| MTSSNKILLVFLLFFCIQDVASENGLDVSALSGKSKKFFFDMTKQVMGVPSLKPENLAAQAFFRSFLDKYTKLDDKVKNDMTQHVPKATKLFDAAAKKYNIDPSSAFKMLSTFFETFKKGASSEMASKGLQMAGKLLGGKGSGGGGGLLGFLGTRR | not soluble |
| MTSSTETTSTTPQVAVNDIGNEEAFLAAIDETIKYFNDGDIVDGVIVKVDRDEVLLDIGYKTEGVIPSRELSIKHDVDPNEVVKVGDEIEALVLQKEDKEGRLILSKKRAQYERAWGTIEKIKEEDGIVTGTVIEVVKGGLILDIGLRGFLPASLVEMRRVRDLQPYVGKELEAKIIELDKNRNNVVLSRRAWLEQTQSEVRQTFLTTLQKGQVRSGVVSSIVNFGAFVDLGGVDGLVHVSELSWKHIDHPSEVVEVGQEVTVEVLDVDMDRERVSLSLKATQEDPWQQFARTHQIGQVVPGKVTKLVPFGAFVRVDEGIEGLVHISELAERHVEIPEQVVQVNDEIFVKVIDIDLERRRISLSLKQANEAFGGDPASVEFDPTLYGMAASYDDQGNYIYPEGFDPETNDWLEGFESQREVWETQYAEAQQRFEQHQAQVIKSREADAQAEAEGAAAPAAGGSGAGVSGGSYSSESDDNSGALASDEALAALREKLAGGQSLEHHHHHH | soluble |
| MTSTSFATIELLHDPRGFATLWLNRADKNNAFNAQMIRELILALDQVQGNAGLRFLLIRGRGRHFSAGADLAWMQQAADLDYNTNLDDARELAELMYNLARLKIPTLAVVQGAAFGGALGLISCCDMAIAAEDAQFCLSEVRIGLAPAVISPFVVQAIGERATRRYALTAERFDGRQARHIGLIAECYPVADLEHQTLGWIDNLLLNSPQAMRISKELLREVGSGELTPALRRYCESAIARIRTSAEGQEGLRAFLQKRTPGWQQRDDEPAALEDRQKDSQR | not soluble |
| MTSVLNSFWLGIKVPLRKAVYWLQYNLLKRKRNAFNILMAEETIDYIVKHECSVCRYGDGEIDMITCLKEGFDESRKSDFQTYDEKLAWRLKQILGNGSDEELNLIVCIPYVWKSHRSLSFTARRFIERSFVNNREMIFASIHPTRLYGDSYFTRFYIDARNKKKKGSYIQHCRQIWQGRDLCIIEGEQSRLGVGNDLFDNAQSIERILCPALDAFAKYDEIMKAACTVNKAKLVLIALGHTATVLAYDLAEVGYQAIDIGHIDIEYEWFLMRAPKKVPVPHKYVNEVPEGRQFSEERNKEYLSQIIYSVK | not soluble |
| MTTAPAKISEYTVSTPDRTVASVRADGIVAATPLGSHGYAADAGGPHLAPGVSAAAVVPVSPFRVDRTNWVVCPPVSVTVARDETTVELHADGHAHGRVPVDSPVTLSWGTPLPIAVVSHAGTHGD | soluble |
| MTTFRQHRWQSFLQGYEQRARILISCPDRPGIVAAVTSFLYEQGANIVESSQYSTDPEGGTFFLRLEFDCPNIAERKEEIEAAFAPIAAEFEMRWQLRLHNDIRRIAIFVSKAEHCLLELLWQWQAGELIADIALVISNHPDLRETVESFGIPYVHIPVTKETKADAEAEQIRLLRDYQIDTIVLARYMQILSPAFVAEFSGRIINIHHSFLPAFIGARPYERAYERGVKLIGATSHYVTDDLDEGPIIEQDVARVDHRHHPDDLKRIGRLIEKTVLARALRWHLEDRVIIHGNKTIVFY | soluble |
| MTTKDEVKTLWKLCFNDSDEFTDLYFKMRYKDEVNRVIREDGKIISALQMIPYPMTFCDEVISTSYISGACTHPDYRKHGAMKRLLKETHRCMYEDGVLLASLIPAEEWLFGYYARSGYAPVFGYAVEQVRVDRLCPAPGCRIEVCEFPGVEHYHYFDSRMHGRRSCIQHPKEDFLVIMADLRLGNGKLLVAWEADKIVGMAFTVMGDDTLYIKELLADTDAVQDTLLYEAAHIYKVQRMDYFIPSSADTLFLGMARVIRAEELLKVFAHKYPASELYIHIEGDEAIQENNGYYTVRDGFCFRERVPEKKYHTYTLDGFTRLLLEAEHPYMSLMLN | soluble |
| MTTNPIELESCIIDQIRCPECALTCLQKNIYRHMTQIHNWTTEDCQELIAAIKSEKKSRASSTSFVCCHCRMIFRSVKHLVQHKKMCTEQPQHDNEHLDVYIDEMIVEGEEEVVGINEYDINETKESTQKPSTSSGDSFEMNIPPHRQASRPIQPHHLTQECQIATIIEKPSKFSLMQLPGKYRGCNLKCPECSSTSESLDEFLLHCRQEHMSHDQKFNLEREFFQSRDQFKEWFDQRQEDTCTSLTKRTGHAGETLYRCHRVGKYQSVAKSRKSNPRKIDQTCTAYLKVTTEEDGSTWATGCFTHIGHDLDHKLLWLTESQEKYVRELIDLGWTSDQIFFFIRNEYKDYECKLKYISKNDIRNITVRYNREREKLGFLTDTAKSSAIPISLKERRAVAADSTKEPREEDDDEVKAKIPRMQSKPDNIEKATTSENNSAKHREQVVDSETAEEDEYINVVDVDTMPPNDAGKITIGLNF | not soluble |
| MTTPPPRMLPSGDTAITVEFGRDISDESNRRVLALDRKLKQAPIAGILETVPTYRSLLVHYDPETIGFGALSDQLTALAHTSDESETVAKRRWRIPVCYGGEHGIDLEDAAQALNITPDALVARHAAGDYRVAMIGFTPGWSYLSGLDPALAMPRRQAPRLHTPAGTISVGGIQTGIQCLAGPSGWHLLGRTPVRTYQLHREPIFLLEPGDAISFAQIDAKEFAERDDAASHGEVVAELLSALEHHHHHH | soluble |
